The target in assay [1] is SARS-CoV-2 S2 subdomain protein with D7-tag (SARS-CoV-2 (NC_045512.2, Wuhan-Hu-1), UniProt P0DTC2). Nature of the assay: ELISA.
In assay [2] the target is SARS-CoV-2 NTD protein with D7-tag (SARS-CoV-2 (NC_045512.2, Wuhan-Hu-1), UniProt P0DTC2). Nature of the assay: ELISA. A general note: In an ELISA, binding on a coated surface is turned into a signal by an enzyme label.
In assay [3] the target is T1, SARS-CoV-2 S ectodomain with D7-tag (SARS-CoV-2, UniProt P0DTC2). Nature of the assay: cell-based or functional assay.
The target in assay [4] is SARS-CoV RBD protein (BLI) (SARS-CoV (isolate of the bought protein …, UniProt P59594)). Nature of the assay: BLI. (In general: BLI is a label-free optical method that tracks binding on a fibre tip over time.)
For assay [5], the target named is SARS-CoV-2 wild-type RBD protein (BLI) (SARS-CoV-2, UniProt P0DTC2). Nature of the assay: BLI.
The target in assay [6] is T1, SARS-CoV-2 S ectodomain with D7-tag. Nature of the assay: ELISA.
For assay [7], the target named is SARS-CoV-2 S1 subdomain protein with D7-tag (SARS-CoV-2 (NC_045512.2, Wuhan-Hu-1), UniProt P0DTC2). Nature of the assay: ELISA.
Assay [8] addresses SARS-CoV-2 RBD protein with D7-tag (SARS-CoV-2, UniProt P0DTC2). Nature of the assay: ELISA.

B1: CYFN1006-1 (antibody, V domains shown)
VH: QMQLVQSGAEVKKPGESLKISCKGSGYTFSYYWIGWVRQMPGKGLEWMGIIYPGDSDTRYSPSFQGQVTISADKSISTAYLHWSSLKASDTAMYYCARQGDLGDWILLGYWGQGTLVTVSS
VL: QSALTQPRSVSGSLGQSVTISCTGISSDVGGDNYVSWYQQHPGKAPKLMIYDVSKRPSGVPDRFSGSKSGNTASLTISGLQADDEADYYCCSYALSRVVFGGGTMLTVL
In the case of B1, the binding result in assay [1] and in assay [2] was “no binding” in each case. In assay [3], the “neutralisation of SARS-CoV-2, IC50” value is less than 5 ng/mL. The Kd in assay [4] was 32.4 nM; in assay [5] it was less than 0.001 nM.

B2: CYFN1006-2 (antibody, V domains shown)
VH: QMQLVQSGAEVKKPGESLKISCKGSGYTFSYYWIGWVRQMPGKGLEWMGIIYPGDSDTRYSPSFQGQVTISADKSISTAYLHWSSLKASDTAMYYCARQGDLGDWILLGYWGQGTLVTVSS
VL: QSALTQPPSASGSPGQSVTISCTGASSDVGGYNYVSWYQQHPGKAPKLMIYEVNKRPSGVPDRFSGSKSGNTASLTISGLQADDEADYYCCSYALSRVVFGGGTMLTVL
B2: the binding result is given as “binds” in assay [6]; “binds” in assay [7]; “binds” in assay [8]; “no binding” in assay [1]; “no binding” in assay [2]; “binds” in assay [5].

One may read the Kd as a measure of binding affinity in units of concentration.

Values taken from article PMC11885566 (Communications Biology, 2025).
